Source: patent publication US20120213771A1 (published 2012)

T1: recombinant human CD27/TNFRSF7/Fc chimera (R&D Systems Catalog No. 382-CD) (UniProt P26842 20-191)
T1 chain: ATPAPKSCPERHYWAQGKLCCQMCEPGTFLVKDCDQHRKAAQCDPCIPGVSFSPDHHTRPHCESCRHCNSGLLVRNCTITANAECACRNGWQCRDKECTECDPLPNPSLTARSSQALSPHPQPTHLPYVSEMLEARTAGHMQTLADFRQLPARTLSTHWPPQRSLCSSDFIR


Key:
[1] = biological target: T1, recombinant human CD27/TNFRSF7/Fc …; assay: Biacore SPR
[2] = biological target: T1, recombinant human CD27/TNFRSF7/Fc …; assay: Biacore SPR

Row | Binder | Ka [1] | Kd [2]
1 | 2C2-1A10 (antibody, V domains shown) VH: QVQLVESGGGVVQPGRSLRLSCAASGFTFSSYDIHWVRQAPGKGLEWVAVIWNDGSNKYYADSVKGRFTISRDNSTNSLFLQMNSLRAEDTAVYYCVGGTADLEHWDQGTLVTVSS VL: DIQMTQSPSSLSASVGDRVTITCRASQGISSWLAWYQQKPEKAPKSLIYAASSLQSGVPSRFSGSGSGTDFTLTISSLQPEDFATYYCQQYNSYPLTFGGGTKVEIK | 1.2e+10 M⁻¹ | 84.1 pM
2 | 3A10-G10 (antibody, V domains shown) VH: QVQLVESGGGVVQPGRSLRLSCAASGFTFSHYGMHWVRQAPGKGPEWVAIIWYDGSNKYYADSVKGRFTISRDNSKNTLDLQMNSLRAEDTAVYYCARDGWTTMVRGLNVFDIWGQGTMVTVSS VL: DIQMTQSPSSLSASVGDRVTITCRASQDISSWLAWYQQKPEKAPKSLIYAASSLQSGVPSRFSGSGSGTDFTLTISSLQPEDFATYYCQQYNSYPPTFGQGTRLEIK | 4.97e+09 M⁻¹ | 202 pM
3 | 1G5-1B9 (antibody, V domains shown) VH: QVQLVESGGGVVQPGRSLRLSCAASGFSFSSYGMHWVRQAPGKGLEWVALLWYDGSHKDFADSVKGRFTISRDNSKNTLDLQMNSLRAEDTAVYYCAREGLAVPGHWYFDLWGRGTLVTVSS VL: AIQLTQSPSSLSASVGDRVTITCRASQGISSALAWYQQKPGKAPKLLIYDASSLESGVPSRFSGSGSGTDFTLTISSLQPEDFATYYCQQFNTYPRTFGQGTKVEIK | 2.55e+09 M⁻¹ | 402 pM
4 | 3H12-1E12 (antibody, V domains shown) VH: QVQLVESGGGVVQPGRSLRLSCATSGFTFSSYDMHWVRQAPGKGLEWVAVIWYDGSNKYYADSVKGRFTISRDNSKNTLYLQMNSLGDEDTAVYYCARGSGNWGFFDYWGQGTLVTVSS VL: DIQMTQSPSSLSASVGDRVTITCRASQGISRWLAWYQQKPEKAPKSLIYAASSLQSGVPSRFSGSGSGTDFTLTISSLQPEDFATYYCQQYNTYPRTFGQGTKVEIK | 2.8e+09 M⁻¹ | 358 pM
5 | 2G9-1D11 (antibody, V domains shown) VH: QVQLVESGGGVVQPGRSLRLSCAASGFTLSSHDIHWVRQAPGKGLEWVAVIWNDGSNKYYADSVKGRFTISRDNSTNSLFLQMNSLRAEDTAVYYCVRGTADLEHWDQGTLVTVSS VL: DIQMTQSPSSLSASVGDRVTITCRASQGISSWLAWYQQKPEKAPKSLIYAASSLQSGVPSRFSGSGSGTDFTLTISSLQPEDFATYYCQQYNSYPLTFGGGTKVEIK | 6.6e+11 M⁻¹ | 1.53 pM
6 | 3H8-1B11 (antibody, V domains shown) VH: EVQLVESGGGLVQPGGSLRLSCAASGFTFSSYWMAWVRQAPGKGLEWLGNIKQDGSEKYYVDSVKGRFTISRDNAKNSLYLQMNSLRAEDTAVYYCVRELGMDWYFDLWGRGTLVTVSS VL: EIVLTQSPATLSLSPGERATLSCRASQSVDSYLAWYQQKPGQAPRLLIYDASNRATGIPARFSGSGSGTDFTLTISNLEPEDFAVYYCQQRSNWPPTFGQGTKVEIK | 1.81e+10 M⁻¹ | 55.6 pM
7 | 1H8-B4 (antibody, V domains shown) VH: QVQLVESGGGVVQPGRSLRLSCAASGFTFNIYDMHWVRQAPGKGLEWVAVIWYDGSNQYYADSVKGRFTISRDNSKNTLYLQMNILRAEDTAVYYCARGTHWGYFDYWGQGTLVTVSS VL: DIQMTQSPSSLSASVGDRVTITCRASQGISSWLAWYQQKPEKAPKSLIYAASNLQSGVPSRFSGSGSGTDFTLTISSLQPEDFATYYCQQYNSYPRTFGQGTKVEIK | 6.39e+09 M⁻¹ | 158 pM
8 | 1F5-1H5 (antibody, V domains shown) VH: QVQLVESGGGVVQPGRSLRLSCAASGFTFSSYDMHWVRQAPGKGLEWVAVIWYDGSNKYYADSVKGRFTISRDNSKNTLYLQMNSLRAEDTAVYYCARGSGNWGFFDYWGQGTLVTVSS VL: DIQMTQSPSSLSASVGDRVTITCRASQGISRWLAWYQQKPEKAPKSLIYAASSLQSGVPSRFSGSGSGTDFTLTISSLQPEDFATYYCQQYNTYPRTFGQGTKVEIK | 5.37e+09 M⁻¹ | 186 pM
